Measured values taken from publication PMC3140635 (2012).

B1: Glycophorin A TM domain (SNGpATM) TMD (protein)
chain: GERVQLAHHFSEPEITLIIFGVMAGVIGTILLISYGIRRLIKKSPSDVKPLPSPDTDVPLSSVEIENPETSDQ

Assays:
steric trap, PS/PC = biological target: the molecule itself; experiment: steric trap, PS/PC
steric trap = biological target: the molecule itself; experiment: steric trap
steric trap, PG/PC [1] = biological target: the molecule itself; experiment: steric trap, PG/PC
steric trap, lysoPC/PC = biological target: the molecule itself; experiment: steric trap, lysoPC/PC
[2] = biological target: the molecule itself; experiment: steric trap, PC bilayers, L/P 1400-1600, no IMP
[3] = biological target: the molecule itself; experiment: steric trap, E. coli lipid bilayers, L/P 1500
steric trap, PE/PC = biological target: the molecule itself; experiment: steric trap, PE/PC
steric trap, PG/PC [4] = biological target: the molecule itself; experiment: steric trap, PG/PC; remark: listed apart in the source
[5] = biological target: the molecule itself; experiment: steric trap, PC bilayers, L/P 1000
steric trap, PG/PC [6] = biological target: the molecule itself; experiment: steric trap, PG/PC; remark: listed apart in the source
steric trap, PE/PG/PC = biological target: the molecule itself; experiment: steric trap, PE/PG/PC
steric trap, DM micelles = biological target: the molecule itself; experiment: steric trap, DM micelles
[7] = biological target: B1; experiment: steric trap, PC bilayers, L/P 1400-1600

B1
Kd (steric trap, PS/PC): 25 nM | Kd (steric trap): 11 nM | Kd (steric trap, PG/PC [1]): 14 nM | Kd (steric trap, lysoPC/PC): 6 nM | Kd [2]: 0.003 nM | Kd [3]: 10 nM | Kd (steric trap, PE/PC): 0.00021 nM | Kd (steric trap, PG/PC [4]): 32 nM | Kd [5]: 0.0015 nM | Kd (steric trap, PG/PC [6]): 47 nM | Kd (steric trap, PE/PG/PC): 5.1 nM | Kd (steric trap, DM micelles): 170 nM

B2: Glycophorin A TM domain (SNGpATM) TMD (protein)
chain: GERVQLAHHFSEPEITLIIFGVMAGVIGTILLISYGIRRLIKKSPSDVKPLPSPDTDVPLSSVEIENPETSDQ
modifications: E. coli inner membrane proteins at mass ratio 1.0
Kd [7]: 9.2 nM
